The values below come from the nanobody polyreactivity screen of Harvey et al. (2022).

The data set is described as follows: yeast display, Sf9 membrane polyspecificity reagent, FACS + sequencing; frameworks hold sequencing errors. The procedure, abridged:
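A synthetic nanobody library was expressed on Saccharomyces cerevisiae BJ5465 by galactose induction for 36–48 hours. The library was stained for 1 hour at 4 °C with 10% biotinylated, detergent-solubilized Sf9 membrane reagent and enriched with streptavidin microbeads before FACS. Low and high (top ~1%) gates were set on anti-HA fluorescence for expression and streptavidin fluorescence for reagent binding, and each polyreactivity label reflects the gate of origin.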
As to “QVQLVESGGGLVQAGGTLRLSCAASGRIFQAYAMGWYRQAPGKERELVASISYRGGITYYADSVKGRFTISRDNAKNTVYLQMNSLKPEDTAVYYCAARSWYFSWEMYYWGQGTQVTVSS”, the “polyreactivity (PSR sort gate)” value is reported as “high polyreactivity”.

“QVQLVESGGGLVQAGGTLRLSCAASGRIFSKNAMGWYRQAPGKERELVARIRWTGGITYYADSVKGRFTISRDNAKNTVYLQMNSLKPEDTAVYYCAAGSYAGFAVIGYYYWGQGTQVTVSS”: the “polyreactivity (PSR sort gate)” value is reported as “low polyreactivity”.

On to “QVQLVESGGGLVQAGGTLRLSCAASGRTFGYNAMGWYRPAPGKERELVAVIRSGGSTYYADSVKGRFTISRDNAKNTVYLQMNSLKPEDTAVYYCAATGLYNVTSPYSYKYDYWGQGTQVTVSS”, for which the “polyreactivity (PSR sort gate)” value is “low polyreactivity”.

For the sequence “QVQLVESGGGLVQAGGTLRLSCAASGRTFNAYPMGWYRQAPGKERELVAAITSSGTSTYYADSVKGRFTISRDNAKNTVYLQMNSLKPEDTAVYYCAAPWGYWGQCTQVTVSS”, the “polyreactivity (PSR sort gate)” value was “low polyreactivity”.

As to “QVQLVESGGGLVQAGGTLRLSCAASGRTFTIYAMGWYRQAPGKEREWVAAITSGGSSYYADSVKGRFTISRDNATKTDYLQMNSLKPEDTAVEYCARGYAVSLVSRYYYWGQGTQVTVSS”, the “polyreactivity (PSR sort gate)” value is “low polyreactivity”.

In the case of “QVQLVESGGGLVQAGGTLRLSCAASGRTFYGNAMGWYRQAPGKERELVAVITRRGDTTYYADSVKGRFTISRDNAKNTVYLQMNSLKPEDTAVYYCAASYTGGYTPRQKYNRMGYWGQGTQVSVSS”, the “polyreactivity (PSR sort gate)” value is “high polyreactivity”.

On to “QVQLVESGGGLVQAGGTLRLSCAASGSIFRLNAMGWYRQPPGKERELVAAITSGGRTNYADSVKGRFTISRDNAKNTDYLQMNSLKPEDTAVYYCNARATAYGWRGDAGFEFDYWGQGTQVTVSS”, for which the “polyreactivity (PSR sort gate)” value is recorded as “low polyreactivity”.

Take “QVQLVESGGGLVQAGGTLRLSCAASGSIFRYYAMGWYRQAPGKERELVATITSTGGSTYYADSVKGRFTISRDNAKNTVYLQMNSLKPEDTAVYYCAARNKWYVTVRGYYLSGFWGQGTQVTVSS”: the “polyreactivity (PSR sort gate)” value is given as “high polyreactivity”.

For “QVQLVESGGGLVQAGGTLRLSCAASGSIFYPNAMGWYRQAPGKERELVAASSWTGGSTRYADSVKGRFTISRDIAKNTVYLQMNSLKPEDTAVYYCAALYVYRPRTPYGYSGQGTQVTVSS”, the “polyreactivity (PSR sort gate)” value was “high polyreactivity”.

As to “QVQLVESGGGLVQAGGTLRLSCAASGSIQYRYAMGWYRQAHGKERELVAAISARGGNTYYADSVKGRFTISRDNAKNTVYVQMNSLKPEDTAVYYCAATYRGYRLHVAYDYWGQGTQVTVSS”, the “polyreactivity (PSR sort gate)” value is recorded as “high polyreactivity”.

“QVQLVESGGGLVQAGGTLRLSCAASGSTFDVYAMGWYRQSPVKESELVADINYGDASTYYADSVKGRFTISRDNAKNTVYLQMISLNPEDTSVYYCAAFVYVLNYLSDGGSVYREHDYWGQGTKVTVSS”: the “polyreactivity (PSR sort gate)” value is on record as “low polyreactivity”.

“QVQLVESGGGLVQAGGTLRLSCAASGSTFGRYAMGWYRQAPGKERELVAAITSDTGNTNYADSVKGRFTISRDNAKNTVYLQMNSLKPEDTAVYYCAARLYARRVYDYWGQGTQVTVSS”: the “polyreactivity (PSR sort gate)” value is on record as “low polyreactivity”.

In the case of “QVQLVESGGGLVQAGGTLRLSCAASGSTFKSNAMGWYRQEPGKERELVAAINRSGAGTYYADSVKGRFTISRDNAKNTVYLQMNSLKPEDTAVYYCAAQSYSRRYDYWGQGTQVTVSS”, the “polyreactivity (PSR sort gate)” value was “high polyreactivity”.

As to “QVQLVESGGGLVQAGGTLRLSCAASGSTFPRNTMGWYRHEPGKERELVAAISSSGVRTYYADSVKGRFTISRDNAKNTVYLQMNSLKAEDTAVYYCAAGSQSRDYYYWGQGTLVTVSS”, the “polyreactivity (PSR sort gate)” value was “high polyreactivity”.

Take “QVQLVESGGGLVQAGGTLRLSCAASGSTYDTYTMGGYSQAPGKERVLVAAITSSGDSTYYADSVKGRSTISRDNAKNTVYLQMNSLKPEDTAVYYCAAEVTVWLYYLYVGEYEYWGQGTQVTVSS”: the “polyreactivity (PSR sort gate)” value is given as “high polyreactivity”.

Consider “QVQLVESGGGLVQAGGTLRLSCAASGYIFFPYAMGWYRQAPGKERELVAAISGSGTSTYYADSVKGRFTISRDNAKNTVYLQMNSLKPEDTAVYYCAAKYGQYDYDYWGQGTQVTVSS”, for which the “polyreactivity (PSR sort gate)” value is listed as “low polyreactivity”.

With “QVQLVESGGGLVQAGGTLRLSCAASGYTFYFYAMGWYRQAPGKEREFVAAIRSSGGRTYYADSVKGRFTISRDNAKNTVYLQMNCLKPEDTAVYSCAAAGYYYSVDGAGPRYDYWGQGTQVTGSS”, the “polyreactivity (PSR sort gate)” value is listed as “low polyreactivity”.

On to “QVQLVESGGGLVQAGGTLRLSCAATGRIFARYAMGWYRQAPGKERELVAAITVSGDNTYYADSVKGRFTISRYNAKNTVYLQMNSLKPEDTAVYYCAVRAVLLFGFFEYDYWGQGTQVTVSS”, for which the “polyreactivity (PSR sort gate)” value is “low polyreactivity”.

As to “QVQLVESGGGLVQAGGTLRLSCAPSGSIFRVYTMGWYRQAPGKERELVATISRSGVSTNYADSVKGRFTISRDNAKNTVYLQMNSLKPEDTAVYYCNAYYRTKGGFRFGYWGQGTQVTVSS”, the “polyreactivity (PSR sort gate)” value is given as “high polyreactivity”.

For “QVQLVESGGGLVQAGGTLRLSCDASGLIFEYYAMGWYRQAPGKERELVAVINWSGASTYYADSVKGRFTISRDNAKNTVFLQMNSLKPEDTAVYYCAAGVLITGLRFDYWGQGSQVTVSS”, the “polyreactivity (PSR sort gate)” value is recorded as “low polyreactivity”.

Consider “QVQLVESGGGLVQAGGTLRLSCSASGRTFPGYAMGWYRQAPGKERELVAVISLSGGRTNYADSVKGRFTISRDNAKNTVFLLMNSLKPEDTAVYYCAGRYHGHSNDYWGQGTQVTVSS”, for which the “polyreactivity (PSR sort gate)” value is “low polyreactivity”.

As to “QVQLVESGGGLVQAGGTLRLSCSASGRTFQVYAMGWYRQAPGKERELVAGITRAGSTYYADSVKGRFTISRDNAKNTVYLQMNSLKPEDTAVYYCAASRWHGYNYWGQGTQVTVSS”, the “polyreactivity (PSR sort gate)” value is “high polyreactivity”.

“QVQLVESGGGLVQAGGTLRLTCAASGRTFYRYVMGWYRHAPVKERELFAAINWSGGSTYYADSVKGRFTISRDNAKNTVYLQMNSLKPEDTAVYYCAADLYTLRYGYRYEYWGQGTQVTVSS”: the “polyreactivity (PSR sort gate)” value was “high polyreactivity”.

With “QVQLVESGGGLVQAGRRLRLSCAASGRIFSRNAMGWYRQAPGKERELVAVITKRGGSTYYADSVKGRFTISRDNAKNTVYLQMNSLKPEDSAVYYCNRRPYTGLGRLDYWGQGTQVTVSS”, the “polyreactivity (PSR sort gate)” value is “high polyreactivity”.

Regarding “QVQLVESGGGLVQAGRSIRLTCAASGITFSEYAMGWYRQAPGKEREFVAAISRRGGSTYYADYVKGRFTISSDNAKNTVYLQMNSLKAEDTAVYYCNRRYVTFRFEQDYDYWGQGNQVTVSS”, the “polyreactivity (PSR sort gate)” value is given as “low polyreactivity”.

With “QVQLVESGGGLVQAGRSLCLSCAASGSIFINAMGWYRQAPGKERELVATIRWRGGTTYYADSVKGRFTISRDNAKNTVDLQMNSLKPEATAVYYCAADRSYYPDTRTTYGYNYWGQGTQVTVSS”, the “polyreactivity (PSR sort gate)” value was “low polyreactivity”.

For “QVQLVESGGGLVQAGRSLRLICAASGRTFTLNAMRWYRQAPGKERELVDAITWGAGSTYYADSVKGRFTISRDNAKNTVYLQMNSLKPEDTAVYYCAARFHGDYYRYRSPSMYYWGQGSQVTVSS”, the “polyreactivity (PSR sort gate)” value was “high polyreactivity”.

For the sequence “QVQLVESGGGLVQAGRSLRLNCAASGSIIKYNAMGWYRPAPGKERELVASISSSGGTTYYADSVKGRFTISRDNAKNTVYLQMNRLTPEDTAVYYCTKYVRAGNGYGEEDYWGQGTQVTVSS”, the “polyreactivity (PSR sort gate)” value was “high polyreactivity”.

Take “QVQLVESGGGLVQAGRSLRLSCAASGFIFKSYAMGWYRQAPAKERELVAAISFSGGSTYYADSVKGLFTISRDNAKNTVYLQMNSLKPEDSAVYYCAADPRNGEYYYWGQGTQVTVSS”: the “polyreactivity (PSR sort gate)” value was “high polyreactivity”.

On to “QVQLVESGGGLVQAGRSLRLSCAASGFTFRWYGMGWYRQAPGKERELVAAISWSGGTTYYADSVKGRFTISRDNAKKTVYLQMNSLKAEDTAVYYCAASFQTFASRYDYWGQGTQVTVSS”, for which the “polyreactivity (PSR sort gate)” value is “high polyreactivity”.

For “QVQLVESGGGLVQAGRSLRLSCAASGIIFAFYAMGWYRQAPGKERELVAAISIDGSTYYADSVKGRFTISRDNAKNTVYLQMNSLKPEDTAVYYCAAQYLNVYYWEDYWGQGTQVTVSS”, the “polyreactivity (PSR sort gate)” value was “low polyreactivity”.

On to “QVQLVESGGGLVQAGRSLRLSCAASGRIFRFKTMGWYRQSPGKERELVAAITYSGGGTYYADSVKGRFTISRDNAKNTVYLQMNSLKPEDTAVYYCAATLYLRTIDDYWGQGTQVTVSS”, for which the “polyreactivity (PSR sort gate)” value is recorded as “high polyreactivity”.

Consider “QVQLVESGGGLVQAGRSLRLSCAASGRIFSDYAMGWYRQAPGKERELVATITSGDSTNYADSVKGRFTISRDNAKNTVYLQMNSLNPEDTAVYYCNADRFADYDYWGQGTQVTVST”, for which the “polyreactivity (PSR sort gate)” value is listed as “low polyreactivity”.

Regarding “QVQLVESGGGLVQAGRSLRLSCAASGRTFLVYAMGWYRQAPGKERELVAVINSGTSTNYADSVKGRFTISRDNAKNTVYLQMNSQKPEDTAVYYCATAYRRRDRHYYWGQGTQVTVSS”, the “polyreactivity (PSR sort gate)” value was “low polyreactivity”.

As to “QVQLVESGGGLVQAGRSLRLSCAASGRTYSVYAMGWYRKAPGKETELLAGITSGGSTNYADSVKGRFTISRDNAKNTVYLQMNSLNPEDTAVYYCAAENVYAGFGFVSIGDYWGQGTQVTVST”, the “polyreactivity (PSR sort gate)” value is given as “low polyreactivity”.

In the case of “QVQLVESGGGLVQAGRSLRLSCAASGSISRFYAMGWYRQAPAKERELVGANSWSGGRTYYADSVKGRFTISRDNAKNTVYLQMNSLKPEDTAVYYCNAFRRYNDEDYWGQGTQVTVSS”, the “polyreactivity (PSR sort gate)” value is given as “high polyreactivity”.

Take “QVQLVESGGGLVQAGRSLRLSCAASGSTFPWYTMGWYRQAPGKERELVAAIDGSAGDTYYADSVKGRFTISRDNAKNTVYLQMNSLKPEDTAVYYCATRTSRWGYLHYDYWGQGTQVTVSS”: the “polyreactivity (PSR sort gate)” value is given as “low polyreactivity”.

In the case of “QVQLVESGGGLVQAGRSLRLTCAASGRTFLANAMGWYRQAPGKEREFVAAIDWRTGSTYYADSVKGRFTISRDNAKNSVYLQRNSLNPEDTAVYYCAKDSSSYYYAHFYYWGQGTQVTVSS”, the “polyreactivity (PSR sort gate)” value is on record as “high polyreactivity”.

For “QVQLVESGGGLVQAGRTLRLRCAASVSTVPYAMGWYSPAPGKERELVAAISKSAGRSYYADYVKGRFTISRENAKNTVYLQMNSLKPEDTAVYYCAARQSYYGHDYWGQGTQVTVSS”, the “polyreactivity (PSR sort gate)” value is “high polyreactivity”.

Turning to “QVQLVESGGGLVQAGRTLRLSCAASGRTFVPYAMGWYRPAPGKERELVAAISYSGDSTYYADSVKGRFTISRDNAKNTVYLQMNRLKPEDTAVYYCAARGGYPFYYWGQGTQVTVSS”, the “polyreactivity (PSR sort gate)” value is on record as “low polyreactivity”.

With “QVQLVESGGGLVQAGRTLRLSCAASGRTLGLYAMGWYRQAPGKERELVAAITTSGGSTSYADSVKGRFTISRDNAKNTVYLEMNSLKPEDTSVYYCAVDVEVTFFQYSWIYGSWGQGTQVTVSS”, the “polyreactivity (PSR sort gate)” value is “low polyreactivity”.
